Measured values published in doi:10.1101/714493.

Tests used:
Assay in all cases: SEC
[1] = molecular target: Bile Salt Hydrolase from Enterococcus faecalis, wild type (Enterococcus faecalis)
[2] = molecular target: EfBSH E269A (Enterococcus faecalis)
[3] = molecular target: EfBSH E269D (Enterococcus faecalis)
[4] = molecular target: EfBSH E269Q (Enterococcus faecalis)
[5] = molecular target: EfBSH R207A (Enterococcus faecalis)

For “Bile Salt Hydrolase from Enterococcus faecalis, wild type (enzyme)”, the stoichiometry N [1] was 4.

In the case of EfBSH E269A (enzyme), the stoichiometry N [2] is reported as 4.

With EfBSH E269D (enzyme) the stoichiometry N [3] was 4.

Substance EfBSH E269Q (enzyme) has a stoichiometry N [4] of 4.

EfBSH R207A (enzyme) gave a stoichiometry N [5] of 4.
